According to paper PMC7083938, “NELL2-Robo3 complex structure reveals mechanisms of receptor activation for axon guidance” (Nature Communications, 2020):

Tests used:
Assay in all cases: flow cytometry on cells; biotinylated ligand at various concentrations, 30 min at 4 °C in PBS + 0.1% BSA, on Drosophila S2 cells displaying the partner (C-terminal FLAG, rat Neurexin-1 transmembrane helix); Cy5-streptavidin; gated on anti-FLAG positive cells; MFI fit to a single-site model; apparent KD
Conditions in all cases: one partner purified
[1] = molecular target: T1, hRobo3 FN1-3 E639A, biotinylated (human, UniProt Q96MS0 549-870, E639A, biotin on the Avi-tag (BirA))
T1 construct: human Robo3, FN domains 1-3, P549-L870; source: High Five cells (baculovirus), purified, biotinylated with BirA (general methods)
T1 sequence (looked up): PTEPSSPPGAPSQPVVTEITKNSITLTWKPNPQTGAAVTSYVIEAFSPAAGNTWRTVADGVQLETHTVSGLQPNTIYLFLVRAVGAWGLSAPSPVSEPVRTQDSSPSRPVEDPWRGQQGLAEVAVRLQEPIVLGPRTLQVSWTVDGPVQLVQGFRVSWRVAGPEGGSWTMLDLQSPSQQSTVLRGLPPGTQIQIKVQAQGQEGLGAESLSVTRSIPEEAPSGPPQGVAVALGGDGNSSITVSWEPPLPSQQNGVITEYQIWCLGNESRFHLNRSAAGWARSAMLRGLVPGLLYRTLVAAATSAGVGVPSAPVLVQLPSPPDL

[2] = molecular target: T2, hRobo3 FN1-3 R630A, biotinylated (human, UniProt Q96MS0 549-870, R630A, biotin on the Avi-tag (BirA))
T2 construct: human Robo3, FN domains 1-3, P549-L870; source: High Five cells (baculovirus), purified, biotinylated with BirA (general methods)
T2 sequence (looked up): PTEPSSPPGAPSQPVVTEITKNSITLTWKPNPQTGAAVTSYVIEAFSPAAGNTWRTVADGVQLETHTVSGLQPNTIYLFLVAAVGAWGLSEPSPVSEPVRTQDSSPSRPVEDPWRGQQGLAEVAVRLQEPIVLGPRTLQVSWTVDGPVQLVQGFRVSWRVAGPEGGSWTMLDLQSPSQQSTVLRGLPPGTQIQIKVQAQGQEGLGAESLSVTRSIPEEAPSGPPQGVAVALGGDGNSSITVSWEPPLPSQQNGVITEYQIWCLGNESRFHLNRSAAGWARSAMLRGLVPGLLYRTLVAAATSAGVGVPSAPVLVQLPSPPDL

[3] = molecular target: T3, hRobo3 FN1-3 I624A/L626A, biotinylated (human, UniProt Q96MS0 549-870, I624A | L626A, biotin on the Avi-tag (BirA))
T3 construct: human Robo3, FN domains 1-3, P549-L870; source: High Five cells (baculovirus), purified, biotinylated with BirA (general methods)
T3 sequence (looked up): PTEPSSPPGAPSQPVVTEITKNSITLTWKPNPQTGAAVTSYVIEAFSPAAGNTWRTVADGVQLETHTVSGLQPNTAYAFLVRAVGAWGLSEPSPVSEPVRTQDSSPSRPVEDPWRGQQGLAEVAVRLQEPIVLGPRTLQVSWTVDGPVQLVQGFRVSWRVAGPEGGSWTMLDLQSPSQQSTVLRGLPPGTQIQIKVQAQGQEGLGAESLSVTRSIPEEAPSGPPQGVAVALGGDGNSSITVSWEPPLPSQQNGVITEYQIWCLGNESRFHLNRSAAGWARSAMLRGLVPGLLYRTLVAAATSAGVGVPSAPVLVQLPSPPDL

[4] = molecular target: T4, hRobo3 FN1-3 T604A, biotinylated (human, UniProt Q96MS0 549-870, T604A, biotin on the Avi-tag (BirA))
T4 construct: human Robo3, FN domains 1-3, P549-L870; source: High Five cells (baculovirus), purified, biotinylated with BirA (general methods)
T4 sequence (looked up): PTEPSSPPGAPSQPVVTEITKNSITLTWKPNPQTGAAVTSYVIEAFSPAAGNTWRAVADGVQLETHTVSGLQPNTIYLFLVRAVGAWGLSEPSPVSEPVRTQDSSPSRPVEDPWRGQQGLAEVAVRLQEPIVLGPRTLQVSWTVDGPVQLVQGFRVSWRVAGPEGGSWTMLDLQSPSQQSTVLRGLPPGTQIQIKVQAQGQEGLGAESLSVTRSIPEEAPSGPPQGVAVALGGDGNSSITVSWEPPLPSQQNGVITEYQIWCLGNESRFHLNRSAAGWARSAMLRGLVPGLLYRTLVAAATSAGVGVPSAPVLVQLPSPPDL

[5] = molecular target: T5, hRobo3 FN1-3, biotinylated (wild type) (human, UniProt Q96MS0 549-870, biotin on the Avi-tag (BirA))
T5 construct: human Robo3, FN domains 1-3, P549-L870; also called WT hRobo3 FN; Robo3FN1-3 WT; source: High Five cells (baculovirus), purified (Ni-NTA, SEC), biotinylated with BirA
T5 sequence (looked up): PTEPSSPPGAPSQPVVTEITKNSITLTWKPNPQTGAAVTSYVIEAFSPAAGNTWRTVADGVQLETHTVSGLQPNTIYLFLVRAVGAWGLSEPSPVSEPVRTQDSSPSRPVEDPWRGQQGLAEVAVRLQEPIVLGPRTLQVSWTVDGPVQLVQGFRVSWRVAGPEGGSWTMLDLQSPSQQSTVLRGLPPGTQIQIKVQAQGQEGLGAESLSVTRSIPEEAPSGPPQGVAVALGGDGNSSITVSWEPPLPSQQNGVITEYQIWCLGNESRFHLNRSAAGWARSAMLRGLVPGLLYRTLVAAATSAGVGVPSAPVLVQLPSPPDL

B1: hNELL2 EGF1-6 displayed on S2 cells (domain or fragment)
chain: not shown
notes: human NELL2, EGF domains 1-6, G397-T637; also called NELL2EGF1-6 WT (Actin 5C, C-terminal FLAG); FLAG-tagged NELL2 EGF1-6; source: Drosophila S2 cells, transiently transfected, on the cell surface; not shown: FLAG, C-terminal, kept; transmembrane helix of rat Neurexin-1, C-terminal, kept
[1]
  Kd: 1.1 µM
[2]
  Kd: ≥ 100 µM
[3]
  Kd: 6.5 µM
[4]
  Kd: 7.9 µM
[5]
  Kd: 0.89 µM
